pIC50, pKd: −log10 of the molar value. Values belong to the substance of their own block, whether it stands above or below them.
Tests used:
[1] = target: SH2 domain of the tyrosine kinase Fyn (UniProt P06241); experiment: isothermal titration calorimetry, 25 C
recombinant FKBP12 = recombinant FKBP12 (UniProt P62942); experiment: isothermal titration calorimetry, 25 C
[2] = target: recombinant FKBP52 with a tag of six histidine residues at its N-terminus (UniProt Q02790); experiment: isothermal titration calorimetry, 25 C
[3] = target: SH2 domain of the tyrosine kinase Fyn (UniProt P06241); experiment: competition with pYEEI beads for radioactive Fyn SH2 domain (200 nM), no FKBP52
[4] = target: SH2 domain of the tyrosine kinase Fyn (UniProt P06241); experiment: ratio of IC50 values, competition with pYEEI beads
[5] = target: SH2 domain of the tyrosine kinase Fyn (UniProt P06241); experiment: ratio of Kd values, isothermal titration calorimetry
[6] = target: SH2 domain of the tyrosine kinase Fyn (UniProt P06241); experiment: competition with pYEEI beads for radioactive Fyn SH2 domain (200 nM), FKBP52 at 4.5 uM
[7] = target: SH2 domain of the tyrosine kinase Fyn (UniProt P06241); experiment: isothermal titration calorimetry, Fyn SH2 domain binding to the FKpYEEI-FKBP52 complex
[8] = target: phosphotyrosine peptide NH2-pYEEI-COOH; experiment: radioactive SH2 domain on an increased amount of pYEEI Affi-Gel beads
[9] = target: phosphotyrosine peptide NH2-pYEEI-COOH; experiment: radioactive SH2 domain (200 nM) on pYEEI Affi-Gel beads, scintillation counting
[10] = target: SH2 domain of the tyrosine kinase Fyn (UniProt P06241); experiment: competition with pYEEI beads for radioactive Fyn SH2 domain (200 nM), no FKBP12
[11] = target: SH2 domain of the tyrosine kinase Fyn (UniProt P06241); experiment: competition with pYEEI beads for radioactive Fyn SH2 domain (200 nM), FKBP12 at 20 uM
[12] = target: SH2 domain of the tyrosine kinase Fyn (UniProt P06241); experiment: isothermal titration calorimetry, Fyn SH2 domain binding to the SLFpYEEI-FKBP12 complex
[13] = target: SH2 domain of the tyrosine kinase Fyn (UniProt P06241); experiment: competition of free pYEEI with pYEEI beads for radioactive Fyn SH2 domain (200 nM)

SH2 domain of the tyrosine kinase Fyn, sequence (P06241 143-248): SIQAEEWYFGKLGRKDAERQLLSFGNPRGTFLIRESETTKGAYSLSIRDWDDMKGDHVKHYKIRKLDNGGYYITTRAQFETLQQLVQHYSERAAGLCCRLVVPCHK
recombinant FKBP12, sequence (P62942 whole entry): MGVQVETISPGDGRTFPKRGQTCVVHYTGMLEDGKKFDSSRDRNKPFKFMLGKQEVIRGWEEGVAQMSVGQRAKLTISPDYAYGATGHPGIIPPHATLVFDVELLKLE
N-terminal SH2 domain of PLC, sequence (P19174 550-657): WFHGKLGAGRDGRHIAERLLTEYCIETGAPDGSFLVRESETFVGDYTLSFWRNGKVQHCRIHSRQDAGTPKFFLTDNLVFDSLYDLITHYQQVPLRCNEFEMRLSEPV
recombinant FKBP52 with a tag of six histidine residues at its N-terminus, sequence (Q02790 whole entry, the tested form may be a part): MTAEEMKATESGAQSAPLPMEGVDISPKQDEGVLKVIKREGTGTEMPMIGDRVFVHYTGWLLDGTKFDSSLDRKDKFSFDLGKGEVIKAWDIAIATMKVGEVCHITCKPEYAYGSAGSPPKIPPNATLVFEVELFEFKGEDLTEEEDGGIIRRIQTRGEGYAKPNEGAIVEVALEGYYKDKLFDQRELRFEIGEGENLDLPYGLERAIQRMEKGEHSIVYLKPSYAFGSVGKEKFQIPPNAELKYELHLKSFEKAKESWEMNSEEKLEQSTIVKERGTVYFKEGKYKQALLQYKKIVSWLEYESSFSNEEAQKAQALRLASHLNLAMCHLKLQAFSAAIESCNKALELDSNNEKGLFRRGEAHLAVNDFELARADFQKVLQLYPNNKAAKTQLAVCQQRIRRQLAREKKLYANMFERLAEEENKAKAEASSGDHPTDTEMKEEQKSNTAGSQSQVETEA

Substance: FKpYEEI-FKBP52 complex (binary complex of FKBP52 and FKpYEEI) (from UniProt Q02790 1-459)
fold enhancement of affinity against FKpYEEI alone [4]: 3 fold
fold enhancement of affinity against pYEEI [4]: 4.4 fold
fold enhancement of Kd against FKpYEEI alone [5]: 4 fold
pIC50 [6]: 6.60
pKd [7]: 6.89

Substance: N-terminal SH2 domain of PLC
percent of SH2 domain bound to the beads [8]: 40%
percent of SH2 domain bound to the beads [9]: 25%

Substance: SH2 domain of the tyrosine kinase Lck (from UniProt P06239 120-226)
percent of SH2 domain bound to the beads [8]: 25%
percent of SH2 domain bound to the beads [9]: 15%

Substance: SLFpYEEI (SLF coupled to the N-terminus of the pYEEI peptide)
pKd [1]: 6.74
pKd (recombinant FKBP12): 7.21
pKd [2]: 5.30
pIC50 [10]: 6.60

Substance: phosphotyrosine peptide NH2-pYEEI-COOH
pIC50 [13]: 5.96

Now from value to substance:

pKd [1]: 6.28
pKd (recombinant FKBP12): 7.35
pKd [2]: 6.82
pIC50 [3]: 6.12
Substance: FKpYEEI (pYEEI peptide chemically linked to FK506)

percent of SH2 domain bound to the beads [8]: 80%
percent of SH2 domain bound to the beads [9]: 65%
Substance: SH2 domain of the tyrosine kinase Fyn (from UniProt P06241 143-248)

fold reduction of affinity against SLFpYEEI alone [4]: 6 fold
pIC50 [11]: 5.82
pKd [12]: 5.82
Substance: SLFpYEEI-FKBP12 complex (binary complex of SLFpYEEI and FKBP12) (from UniProt P62942 1-108)

Reference: US20020147133A1
